Tested on: MS2 coat protein
Test: apparent KD of MS2 coat protein; designed switch direction (-1 OFF switch, 1 ON switch): -1; higher = weaker reporter binding
Outline: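 SNAP-549-labelled MS2 coat protein was titrated, doubling from 0.7 or 1.5 nM to 3 µM, over designed RNA switches transcribed on Illumina chips by stalled E. coli RNA polymerase. Runs were done without input, with 200 uM small-molecule ligand, or with an oligonucleotide input. Apparent KD is the per-design median over clusters of curve-fitted normalised fluorescence.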

[1] = input ligand: microRNA oligo, concentration not stated
[2] = Eterna round: R95, input ligand: FMN 200 uM
[3] = Eterna round: R95, input ligand: microRNA oligo, concentration not stated
[4] = Eterna round: R95, input ligand: none

| Sequence | apparent KD of MS2 coat protein (input ligand: FMN 200 uM) | apparent KD of MS2 coat protein (input ligand: none) | apparent KD of MS2 coat protein [1] | apparent KD of MS2 coat protein [2] | apparent KD of MS2 coat protein [3] | apparent KD of MS2 coat protein [4] |
| --- | --- | --- | --- | --- | --- | --- |
| CGUCUGUUAGGAUAUGACCCGCGUACCGUGUCGAGCCGGGUUCAGAAGGAACAUGAGGAUCACCCAUGUGAGAA [Eternabot (L1) Solution 12] (Eterna round: R97, puzzle: Exclusion 4) | 163 nM | 27.3 nM | – | – | – | – |
| AAUAAGCGAGGAUAUACACCCGGUAACCGGGAACGGGCGAGACAUGAGGAUCACCCAUGUAGAAGGCGCGUCAA [Ralaente] (Eterna round: R97, puzzle: Exclusion 2) | 182 nM | 161 nM | – | – | – | – |
| UCUCAGUCAGGAUAUCGUUAAUUUAAUUGUUUGUAUUAGUUCGAGAAGGGACAUGAGGAUCACCCAUGUACUCU [Ex4 #18] (Eterna round: R97, puzzle: Exclusion 4) | 29.8 nM | 18.8 nM | – | – | – | – |
| CCAAGCUACUUCAUUAUCCACAUGAGGAUCACCCAUGUCUAGGCAAUUAUGACCUGCCCGUCAGGAGCUCGUCUUAU [Sensor-V1 #40] (Eterna round: R97, puzzle: Sensor, turn-off variant 1) | 35.1 nM | 28.7 nM | – | – | – | – |
| CGUAGCAAAGUGAGGAUAUCUAGAGCGAUAGCUCUAGAGAAGGCACAUGAGGAUCACCCAUGUGGUCAGCUACG [BmEx4/8-A4] (Eterna round: R97, puzzle: Brourd's mod of Exclusion 4) | 393 nM | 82.4 nM | – | – | – | – |
| UUUAUAAUAAGAUCAAUUAAUUAACAUGAGGAUCACCCAUGUGAGGAUAUCAGCUCGUUUAGAGCUGAGAAGGCACAAUAUAAG [ExNG3/17-B2] (Eterna round: R96, puzzle: Exclusion NG 3) | 62.2 nM | 42.3 nM | 42.1 nM | – | – | – |
| ACCUCACUUGAGGAUCACCCAAGUCAGGAUAUACUCGUUUGCCGCACGACGCGGCAUUGUAGAAGGGACGGGCU [Soraedrale] (Eterna round: R97, puzzle: Exclusion 1) | 34.1 nM | 18.1 nM | – | – | – | – |
| GGUUGGCGAGGAUAUACAUGAGGAUCACCCAUGUGAGAGAUACUAGUGAGGUCGAUUGGUAGAAGGCGCUGACG [JL-ex3-2.02 salish99 mod] (puzzle: Exclusion 3) | – | – | – | 97.8 nM | 95.5 nM | 135 nM |
| ACAUGACAGCUAGGAUAUAAAUGACAUGAGGAUCACCCAUGUUGUCCCAUGUUGACGAUCACCGAUUAGAAGGAGCCACCCAUG [Ex NG2 #1] (Eterna round: R96, puzzle: Exclusion NG 2) | 106 nM | 89 nM | 110 nM | – | – | – |
| UUUACAAGCUAUAGAUCCCACAUGAGGAUCACCCAUGUUGCUGCCGGUGACGGUAGCAUAACUAUUGCUCGUCUUAU [JL TOV1 3.61] (Eterna round: R97, puzzle: Sensor, turn-off variant 1) | 150 nM | 185 nM | – | – | – | – |
| CCUCAGUAAGGAUAUCAGCUUAGGAGGUUGGUAAUGAGAGCUGAGAAGGUACAUGAGGAUCACCCAUGUUAGUU [JL Zatite mod 7] (puzzle: Exclusion 4) | – | – | – | – | 30.2 nM | – |
| AUUUAGCAAGCCAGAUCCUACAUGAGGAUCACCCAUGUAGUUCGUCUUAUUUGAAGACAACACAAAAGUGUUGUCUU [Omei Mir OFFv1 B6] (Eterna round: R97, puzzle: Sensor, turn-off variant 1) | 15.7 nM | 14 nM | – | – | – | – |
| ACAUGAGGAUCACCCAUGUUUGGCUGGUUUUCUCCGGCUGUCGAGGAUAUAGUACGGUAUCCGCGCUAGAAGGUGAGGGUCGGC [Aenatbe mod 2] (Eterna round: R96, puzzle: Exclusion NG 3) | 17.1 nM | 19 nM | 12.2 nM | – | – | – |
| UCGCUGCGAGGAUAUACAUGAGGAUCACCCAUGUACGGGUCCGGGUCUUAGUUGAUUGGUAGAAGGCGCAGUGA [JL Laongeedie mod 11] (puzzle: Exclusion 3) | – | – | – | – | 84.7 nM | – |
| UGUUUAUAUGAAGGAUAUACUUAACAUGAGGAUCACCCAUGUGGUGUUGUGAGUGAGUGAGUUUAGUAGAAGGUCAAGUAUUUU [JMF's solution 54] (Eterna round: R96, puzzle: Exclusion NG 2) | 681 nM | 395 nM | 373 nM | – | – | – |
| CCCUCACAUGAGGAUCACCCAUGUCAGGAUAUGCGCGGCCAAAAGGGCUGCUAAGGCAGCAGAAGGGACGUGAA [Eninored] (puzzle: Exclusion 1) | – | – | – | – | 14.4 nM | – |
| GUGUAGUGAGGAUAUACAUGAGGAUCACCCAUGUGAAUAAGAUAGAAUAAGAUAAAGUGUAGAAGGUAUAGUGU [Excluse me!!! 17 - Jieux - Exclusion 3] (puzzle: Exclusion 3) | – | – | – | – | 50 nM | – |
| UUUAAUUUUUUUUUUUUACAAGCUUUUUGCUCGUCUUAUACAUGAGGAUCACCCAUGUGGAUGGAGGAUAAAUUAUC [JMF 31] (puzzle: Sensor v3, turn-off variant 2) | – | – | – | 20.1 nM | 18.7 nM | 16.2 nM |
| AGAAGUAGUAACCGAUCCUACAUGAGGAUCACCCAUGUAGCUAGACGUGCACGCGAUGCUCGUCAGACUACCAGAUG [salish99_TOv1_r3_027] (puzzle: Sensor v3, turn-off variant 1) | – | – | – | 171 nM | 136 nM | 171 nM |
| CUAAAUCAUGUAGGAUAUGCGUGGCGAAGCUAUGCAGAAGGACAUGAGGAUCACCCAUGUGCUUCCGUCUGAGAACAGACGGAA [Mat - Exclusion NG 1 - Mod of JL - D26] (Eterna round: R96, puzzle: Exclusion NG 1) | 115 nM | 251 nM | 277 nM | – | – | – |
| UAAAAGUCAGGAUAUGCGAGAGAUUGAAGUAUGGAAAGGUAGCAGAAGGGACAUGAGGAUCACCCAUGUGAGGA [JR_Exclu4_Sub095] (puzzle: Exclusion 4) | – | – | – | 51.1 nM | 31.7 nM | 29.5 nM |
| CUCAUGUGAGGAUAUGUGAUCAACCUUCUAUAUAGAUGAUGACAGAAGGCACAUGAGGAUCACCCAUGUAGAUC [Ex4 - 3 - 19] (puzzle: Exclusion 4) | – | – | – | – | 37.9 nM | – |
| AGAUGUAGAUACCGGUCCUACAUGAGGAUCACCCAUGUAGCUAGACGUGCGGGCGGCGCUCGUCGGUCUACCAGUAG [salish99_TOv1_r3_099] (puzzle: Sensor v3, turn-off variant 1) | – | – | – | 30.2 nM | 30.7 nM | 37.7 nM |
| ACAUGAGGAUCACCCAUGUACACGUAAUGGCUCAUGUAGAGUGAGGAUAUGUGAGACGAACGAGCACAGAAGGCACAAGACUGG [Deportation 11 - Jieux - Exclusion NG 3] (Eterna round: R96, puzzle: Exclusion NG 3) | 36.1 nM | 45.4 nM | 21.8 nM | – | – | – |
| AGGAUGUUAGGAUAUGCUAGAGUACUACAGAGUACUACGGAGCAGAAGGAACAUGAGGAUCACCCAUGUCACCU [Exclusion 4 R4 S1] (Eterna round: R97, puzzle: Exclusion 4) | 19.9 nM | 14 nM | – | – | – | – |
| AGCUGACGAGGAUAUACAUGAGGAUCACCCAUGUUGGUCAAGCGACGAUAGUCGCAAUGUAGAAGGCGUCAGCU [E3/8-A1] (Eterna round: R97, puzzle: Exclusion 3) | 621 nM | 547 nM | – | – | – | – |
